Test results taken from patent US20160122768A1 (LA JOLLA INSTITUTE FOR ALLERGY AND IMMUNOLOGY, published 2016).

T1: C-terminally HA-tagged wild type (WT) RPTPκ (NM 008983.2), full-length, immunoprecipitated from COS-1 cells (UniProt P35822 26-1457)
T1 construct: It was held on anti-HA immunoprecipitate beads in the assay; also called HA-tagged WT RPTPκ; full-length RPTPk; not shown: C-terminal HA tag
T1 sequence (looked up): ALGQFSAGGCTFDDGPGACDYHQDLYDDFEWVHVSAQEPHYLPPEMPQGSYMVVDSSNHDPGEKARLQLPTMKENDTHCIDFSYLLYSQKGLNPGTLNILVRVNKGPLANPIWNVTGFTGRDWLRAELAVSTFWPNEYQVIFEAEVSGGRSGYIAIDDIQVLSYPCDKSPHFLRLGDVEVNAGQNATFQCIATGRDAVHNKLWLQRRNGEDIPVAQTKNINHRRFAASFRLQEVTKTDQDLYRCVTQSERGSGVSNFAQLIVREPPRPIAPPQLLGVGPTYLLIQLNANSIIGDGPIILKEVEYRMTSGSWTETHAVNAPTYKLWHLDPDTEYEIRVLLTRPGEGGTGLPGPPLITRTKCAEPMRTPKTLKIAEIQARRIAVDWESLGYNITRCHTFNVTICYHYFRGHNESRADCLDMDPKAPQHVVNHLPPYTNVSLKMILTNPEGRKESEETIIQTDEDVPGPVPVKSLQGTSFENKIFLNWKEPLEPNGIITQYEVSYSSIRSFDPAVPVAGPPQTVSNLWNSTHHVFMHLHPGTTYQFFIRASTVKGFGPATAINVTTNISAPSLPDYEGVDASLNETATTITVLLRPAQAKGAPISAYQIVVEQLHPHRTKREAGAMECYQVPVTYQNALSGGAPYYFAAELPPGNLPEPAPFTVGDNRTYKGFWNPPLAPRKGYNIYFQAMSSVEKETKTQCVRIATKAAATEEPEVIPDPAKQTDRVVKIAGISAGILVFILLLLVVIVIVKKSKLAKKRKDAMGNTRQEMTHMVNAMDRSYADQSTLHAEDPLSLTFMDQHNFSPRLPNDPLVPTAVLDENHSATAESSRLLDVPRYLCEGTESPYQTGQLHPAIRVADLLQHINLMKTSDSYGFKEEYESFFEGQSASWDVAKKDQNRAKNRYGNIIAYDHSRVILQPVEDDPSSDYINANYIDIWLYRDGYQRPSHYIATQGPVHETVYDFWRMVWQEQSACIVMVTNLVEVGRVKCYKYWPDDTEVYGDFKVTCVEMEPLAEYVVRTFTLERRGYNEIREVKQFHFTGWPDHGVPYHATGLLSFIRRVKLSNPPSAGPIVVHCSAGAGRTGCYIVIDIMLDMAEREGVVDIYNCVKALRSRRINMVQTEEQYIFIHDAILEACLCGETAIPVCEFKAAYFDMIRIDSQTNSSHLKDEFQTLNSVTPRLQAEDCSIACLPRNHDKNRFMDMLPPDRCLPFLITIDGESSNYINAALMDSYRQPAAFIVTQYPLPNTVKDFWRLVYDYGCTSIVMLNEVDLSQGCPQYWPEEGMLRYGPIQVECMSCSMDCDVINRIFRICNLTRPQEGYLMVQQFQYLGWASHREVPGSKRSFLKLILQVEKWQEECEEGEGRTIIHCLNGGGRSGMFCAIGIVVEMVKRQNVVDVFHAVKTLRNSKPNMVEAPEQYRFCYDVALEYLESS

B1: YES (endogenous, from RA FLS lysates) (enzyme)
chain: not shown

How the values were obtained:
[1] = target: B1; assay: substrate-trapping pull-down of RA FLS lysates with agarose-bound S-tagged iPTPκ-D1051A, Western blotting
Experimental: (§1) Accordingly, cDNA (codon optimized for expression in E. coli [Genscript, Piscataway, N.J.]) encoding a substrate-trapping mutant of the catalytic domain of RPTPκ (iPTPK-D1051A, aa865-1156 of NP_002835.2) was cloned into the pET30c vector. S-tagged-iPTPK-D1051A was isolated from E. coli using S-protein agarose (EMD Millipore). RA FLS were lysed in RIPA buffer containing 10 μg/mL aprotinin, 10 μg/mL leupeptin, 10 μg/mL soybean trypsin inhibitor, 1 mM phenylmethylsulfonyl fluoride and 5 mM iodoacetamide. Lysates were treated with 10 mM dithiothreitol for 10 min, and then diluted 10-fold in buffer containing 25 mM Tris-HCl pH 7.6, 150 mM NaCl and 1 mM ethylenediaminetetraacetic acid. Agarose-bound S-tagged-iPTPκ-D1051A was incubated with RA FLS lysates for 3 hr at 4° C., washed in the dilution buffer, and subjected to Western blotting.

[2] = target: FYN (endogenous, from RA FLS lysates) (human, UniProt P06241 2-537, limits assumed); assay: as above
Experimental: as §1

[3] = target: T1, C-terminally HA-tagged wild type (WT) …; assay: pull-down of RA FLS lysates with immunoprecipitated HA-tagged RPTPκ, Western blotting
Experimental: In vitro Pull-Down Assay. HA-tagged WT RPTPκ was overexpressed in COS-1 cells. Cells were lysed in THE buffer (20 mM Tris-HCl pH 7.5, 150 mM NaCl, 5 mM EDTA pH 8.0 and 1% NP-40) containing 10 μg/mL aprotinin, 10 μg/mL leupeptin, 10 μg/mL soybean trypsin inhibitor, and 1 mM phenylmethylsulfonyl fluoride. RPTPκ was immunoprecipitated using anti-HA antibody (Covance, Princeton, N.J.). RA FLS were lysed in RIPA buffer containing 10 μg/mL aprotinin, 10 μg/mL leupeptin, 10 μg/mL soybean trypsin inhibitor, 1 mM phenylmethylsulfonyl fluoride and 5 mM iodoacetamide. Lysates were treated with 10 mM dithiothreitol for 10 min, and then diluted 10-fold in buffer containing 25 mM Tris-HCl pH 7.6, 150 mM NaCl and 1 mM ethylenediaminetetraacetic acid. Immunoprecipitates were incubated with RA FLS lysates for 3 hr at 4° C., washed in the dilution buffer, and subjected to Western blotting.
We next investigated if RPTPk directly interacts with and/or dephosphorylates SFKs. HA-tagged RPTPκ was immunoprecipitated from COS-1 cells and incubated in vitro with RA FLS lysates, and pull-down was subjected to Western blotting. Both full-length RPTPk immunoprecipitated from COS-1 cells and a recombinant substrate-trapping mutant of the RPTPk catalytic domain (iPTPk-D1051A) precipitated SRC from RA FLS lysates in pull-down assays, but not YES or FYN (SFKs also expressed in FLS).

Sequence of FYN (endogenous, from RA FLS lysates) (P06241 2-537 limits assumed): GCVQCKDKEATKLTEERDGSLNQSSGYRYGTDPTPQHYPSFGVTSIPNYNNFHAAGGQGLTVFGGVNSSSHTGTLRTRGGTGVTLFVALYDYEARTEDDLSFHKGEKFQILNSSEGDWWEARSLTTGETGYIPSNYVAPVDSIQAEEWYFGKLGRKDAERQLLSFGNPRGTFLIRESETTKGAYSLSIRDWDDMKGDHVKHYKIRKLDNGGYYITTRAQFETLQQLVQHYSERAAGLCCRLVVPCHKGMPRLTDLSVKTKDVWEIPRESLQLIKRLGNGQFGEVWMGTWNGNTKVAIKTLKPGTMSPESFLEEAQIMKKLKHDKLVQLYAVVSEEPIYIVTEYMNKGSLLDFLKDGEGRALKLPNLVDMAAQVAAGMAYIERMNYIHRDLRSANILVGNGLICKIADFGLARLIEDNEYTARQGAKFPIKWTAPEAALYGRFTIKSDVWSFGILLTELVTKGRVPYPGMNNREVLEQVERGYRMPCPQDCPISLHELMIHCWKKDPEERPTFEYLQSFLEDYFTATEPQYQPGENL

Row | binding result [1] | binding result [2] | binding result [3] | Binder
1 | no binding | no binding |  | S-tagged-iPTPκ-D1051A, substrate-trapping mutant of the catalytic domain of RPTPκ (aa865-1156 of NP_002835.2) (enzyme, not shown: small tags and cut ends, Numbering counts on NP_002835.2, which may differ from the canonical UniProt isoform; also called iPTPk-D1051A; iPTPK-D1051A) HPAIRVADLLQHINLMKTSDSYGFKEEYESFFEGQSASWDVAKKDQNRAKNRYGNIIAYDHSRVILQPVEDDPSSDYINANYIDGYQRPSHYIATQGPVHETVYDFWRMIWQEQSACIVMVTNLVEVGRVKCYKYWPDDTEVYGDFKVTCVEMEPLAEYVVRTFTLERRGYNEIREVKQFHFTGWPAHGVPYHATGLLSFIRRVKLSNPPSAGPIVVHCSAGAGRTGCYIVIDIMLDMAEREGVVDIYNCVKALRSRRINMVQTEEQYIFIHDAILEACLCGETAIPVCEFK
2 |  |  | no binding | B1
